Measurements reported in patent US20240192215A1 (E AND S HEALTHCARE, published 2024).

T1: Peptide_046 (human)
T1 construct: 15-mer of hTrx1 on microarray
T1 peptide: ATWCGPCKMIKPFFH

T2: Peptide_047 (human)
T2 construct: 15-mer of hTrx1 on microarray
T2 peptide: TWCGPCKMIKPFFHS

T3: Peptide_048 (human)
T3 construct: 15-mer of hTrx1 on microarray
T3 peptide: WCGPCKMIKPFFHSL

T4: Peptide_049 (human)
T4 construct: 15-mer of hTrx1 on microarray
T4 peptide: CGPCKMIKPFFHSLS

T5: Peptide_050 (human)
T5 construct: 15-mer of hTrx1 on microarray
T5 peptide: GPCKMIKPFFHSLSE

T6: Peptide_052 (human)
T6 construct: 15-mer of hTrx1 on microarray
T6 peptide: CKMIKPFFHSLSEKY

T7: Peptide_053 (human)
T7 construct: 15-mer of hTrx1 on microarray
T7 peptide: KMIKPFFHSLSEKYS

T8: Peptide_054 (human)
T8 construct: 15-mer of hTrx1 on microarray
T8 peptide: MIKPFFHSLSEKYSN

T9: Peptide_055 (human)
T9 construct: 15-mer of hTrx1 on microarray
T9 peptide: IKPFFHSLSEKYSNV

T10: Peptide_056 (human)
T10 construct: 15-mer of hTrx1 on microarray
T10 peptide: KPFFHSLSEKYSNVI

T11: Peptide_057 (human)
T11 construct: 15-mer of hTrx1 on microarray
T11 peptide: PFFHSLSEKYSNVIF

T12: Peptide_004 (human)
T12 construct: 15-mer on microarray; not native form, recombinant insert region
T12 peptide: AADVHSQHHHHHHHH

T13: Peptide_014 (human)
T13 construct: 15-mer on microarray; not native form, includes recombinant insert region
T13 peptide: HHHHHVKQIESKTAF

T14: Peptide_019 (human)
T14 construct: 15-mer of hTrx1 on microarray
T14 peptide: VKQIESKTAFQEALD

T15: Peptide_020 (human)
T15 construct: 15-mer of hTrx1 on microarray
T15 peptide: KQIESKTAFQEALDA

T16: Peptide_021 (human)
T16 construct: 15-mer of hTrx1 on microarray
T16 peptide: QIESKTAFQEALDAA

T17: Peptide_023 (human)
T17 construct: 15-mer of hTrx1 on microarray
T17 peptide: ESKTAFQEALDAAGD

T18: Peptide_025 (human)
T18 construct: 15-mer of hTrx1 on microarray
T18 peptide: KTAFQEALDAAGDKL

T19: Peptide_084 (human)
T19 construct: 15-mer of hTrx1 on microarray
T19 peptide: SECEVKCMPTFQFFK

T20: Peptide_095 (human)
T20 construct: 15-mer of hTrx1 on microarray
T20 peptide: QFFKKGQKVGEFSGA


Assays:
[1] = target: T1, Peptide_046; experiment: peptide microarray, 1 ug/mL
Procedure: (§1) 5, 1, 0.2, 0.04, 0.008 and 0.0016 μg/mL serial dilutions were incubated on a single multi-well microarray slide at 30° C. for 1 hour. The slide includes 21 individual mini-arrays (one mini-array per sample dilution).
(§2) DyLight 650 was used as a label. False-positive binding to a peptide was evaluated by performing one additional control incubation in which only a secondary antibody was applied on the same microarray slide. Before performing each step, the microarrays were washed with a washing buffer.

[2] = target: T2, Peptide_047; experiment: peptide microarray, 1 ug/mL
Procedure: as §1, §2

[3] = target: T3, Peptide_048; experiment: peptide microarray, 1 ug/mL
Procedure: as §1, §2

[4] = target: T4, Peptide_049; experiment: peptide microarray, 1 ug/mL
Procedure: as §1, §2

[5] = target: T5, Peptide_050; experiment: peptide microarray, 1 ug/mL
Procedure: as §1, §2

[6] = target: T6, Peptide_052; experiment: peptide microarray, 1 ug/mL
Procedure: as §1, §2

[7] = target: T7, Peptide_053; experiment: peptide microarray, 1 ug/mL
Procedure: as §1, §2

[8] = target: T8, Peptide_054; experiment: peptide microarray, 1 ug/mL
Procedure: as §1, §2

[9] = target: T9, Peptide_055; experiment: peptide microarray, 1 ug/mL
Procedure: as §1, §2

[10] = target: T10, Peptide_056; experiment: peptide microarray, 1 ug/mL
Procedure: as §1, §2

[11] = target: T11, Peptide_057; experiment: peptide microarray, 1 ug/mL
Procedure: as §1, §2

[12] = target: T12, Peptide_004; experiment: peptide microarray, 5 ug/mL
Procedure: as §1, §2

[13] = target: T1, Peptide_046; experiment: peptide microarray, 0.2 ug/mL
Procedure: as §1, §2

[14] = target: T2, Peptide_047; experiment: peptide microarray, 0.2 ug/mL
Procedure: as §1, §2

[15] = target: T3, Peptide_048; experiment: peptide microarray, 0.2 ug/mL
Procedure: as §1, §2

[16] = target: T4, Peptide_049; experiment: peptide microarray, 0.2 ug/mL
Procedure: as §1, §2

[17] = target: T6, Peptide_052; experiment: peptide microarray, 0.2 ug/mL
Procedure: as §1, §2

[18] = target: T7, Peptide_053; experiment: peptide microarray, 0.2 ug/mL
Procedure: as §1, §2

[19] = target: T8, Peptide_054; experiment: peptide microarray, 0.2 ug/mL
Procedure: as §1, §2

[20] = target: T9, Peptide_055; experiment: peptide microarray, 0.2 ug/mL
Procedure: as §1, §2

[21] = target: T10, Peptide_056; experiment: peptide microarray, 0.2 ug/mL
Procedure: as §1, §2

[22] = target: T11, Peptide_057; experiment: peptide microarray, 0.2 ug/mL
Procedure: as §1, §2

[23] = target: T1, Peptide_046; experiment: peptide microarray, head 0.08 ug (text 0.008 ug/mL)
Procedure: as §1, §2

[24] = target: T2, Peptide_047; experiment: as above
Procedure: as §1, §2

[25] = target: T3, Peptide_048; experiment: as above
Procedure: as §1, §2

[26] = target: T4, Peptide_049; experiment: as above
Procedure: as §1, §2

[27] = target: T5, Peptide_050; experiment: as above
Procedure: as §1, §2

[28] = target: T6, Peptide_052; experiment: as above
Procedure: as §1, §2

[29] = target: T7, Peptide_053; experiment: as above
Procedure: as §1, §2

[30] = target: T8, Peptide_054; experiment: as above
Procedure: as §1, §2

[31] = target: T9, Peptide_055; experiment: as above
Procedure: as §1, §2

[32] = target: T10, Peptide_056; experiment: as above
Procedure: as §1, §2

[33] = target: T11, Peptide_057; experiment: as above
Procedure: as §1, §2

[34] = target: T13, Peptide_014; experiment: peptide microarray, 5 ug/mL
Procedure: as §1, §2

[35] = target: T14, Peptide_019; experiment: peptide microarray, 5 ug/mL
Procedure: as §1, §2

[36] = target: T15, Peptide_020; experiment: peptide microarray, 5 ug/mL
Procedure: as §1, §2

[37] = target: T16, Peptide_021; experiment: peptide microarray, 5 ug/mL
Procedure: as §1, §2

[38] = target: T17, Peptide_023; experiment: peptide microarray, 5 ug/mL
Procedure: as §1, §2

[39] = target: T18, Peptide_025; experiment: peptide microarray, 5 ug/mL
Procedure: as §1, §2

[40] = target: T19, Peptide_084; experiment: peptide microarray, 5 ug/mL
Procedure: as §1, §2

[41] = target: T20, Peptide_095; experiment: peptide microarray, 5 ug/mL
Procedure: as §1, §2

Row | signal (blank-control = 1) [1] | signal (blank-control = 1) [2] | signal (blank-control = 1) [3] | signal (blank-control = 1) [4] | signal (blank-control = 1) [5] | signal (blank-control = 1) [6] | signal (blank-control = 1) [7] | signal (blank-control = 1) [8] | signal (blank-control = 1) [9] | signal (blank-control = 1) [10] | signal (blank-control = 1) [11] | signal (blank-control = 1) [13] | signal (blank-control = 1) [14] | signal (blank-control = 1) [15] | signal (blank-control = 1) [16] | signal (blank-control = 1) [17] | signal (blank-control = 1) [18] | signal (blank-control = 1) [19] | signal (blank-control = 1) [20] | signal (blank-control = 1) [21] | Binder | other results
1 | 3.18 | 2.25 | 6 | 1.96 | 1.09 | 2.38 | 2.13 | 1.15 | 1.38 | 1.84 | 2.07 | 2 | 1.58 | 5.99 | 1.45 | 1.38 | 1.66 | 0.84 | 1.04 | 1.24 | monoclonal antibody B266-1 (antibody, human IgG1, B266 with the Fc part changed to human IgG1; also called B266-1 (Trx1-hIgG1); B266-1 (hTrx1-hIgG1)) light: QIVLTQSPAIMSASPGEKVTMTCSASSRISYMYWYQQKPGTSPKRWIYDTSKLASGVPARFSGSGSGTSYSLTISTMEAEDAATYYCHQRSSYPTFGAGTKLELKSVAAPSVFIFPPSDEQLKSGTASVVCLLNNFYPREAKVQWKVDNALQSGNSQESVTEQDSKDSTYSLSSTLTLSKADYEKHKVYACEVTHQGLSSPVTKSFNRGEC heavy: not shown | signal (blank-control = 1) [12]: 6.78; signal (blank-control = 1) [22]: 1.94; signal (blank-control = 1) [23]: 1.64; signal (blank-control = 1) [24]: 1.11; signal (blank-control = 1) [25]: 7.25; signal (blank-control = 1) [26]: 1.31; signal (blank-control = 1) [27]: 0.52; signal (blank-control = 1) [28]: 1.12; signal (blank-control = 1) [29]: 1.44; signal (blank-control = 1) [30]: 0.71; signal (blank-control = 1) [31]: 0.85; signal (blank-control = 1) [32]: 1.07; signal (blank-control = 1) [33]: 2.09
2 | 5.62 | 4.07 | 3.91 | 1.2 | 0.47 | 4.43 | 8.52 | 1.43 | 3.26 | 2.58 | 2.19 | 3.44 | 2.52 | 4.61 | 1.34 | 2.56 | 4.75 | 0.89 | 2.21 | 1.72 | monoclonal antibody B264 (antibody, mouse IgG1, kappa, V domains shown, also called AB264; B264 (Trx1-mIgG1)) VH: QVQLQQSGAELARPGASVKMSCKASGYTFTSYTMHWVKQRPGQGLEWIGYINPTSDYTNYNQKFKDKATLTADKSSSTAYMQLSSLTSEDSAVYFCASEGGFLYYFDYWGQGTTLTVSS VL: DVLMTQTPLSLPVSLGDQASISCRSSQSIVHSNGNTYLEWYLQKPGQSPKLLIYKVSNRFSGVPDRFSGSGSGTDFTLKISRVEAEDLGVYYCFQGSHVPYTFGGGTKLEIKR | signal (blank-control = 1) [34]: 6.9; signal (blank-control = 1) [35]: 1.98; signal (blank-control = 1) [36]: 2.41; signal (blank-control = 1) [37]: 2.69; signal (blank-control = 1) [38]: 1.26; signal (blank-control = 1) [39]: 6.49; signal (blank-control = 1) [40]: 3.79; signal (blank-control = 1) [41]: 3.44; signal (blank-control = 1) [22]: 2.08; signal (blank-control = 1) [23]: 2.11; signal (blank-control = 1) [24]: 1.52; signal (blank-control = 1) [25]: 7.68; signal (blank-control = 1) [26]: 1.43; signal (blank-control = 1) [27]: 0.65; signal (blank-control = 1) [28]: 1.23; signal (blank-control = 1) [29]: 1.76; signal (blank-control = 1) [30]: 0.63; signal (blank-control = 1) [31]: 0.99; signal (blank-control = 1) [32]: 1.11; signal (blank-control = 1) [33]: 2.27
